Test results reported in paper PMC6829621, “An RBPJ-Drosophila Model Reveals Dependence of RBPJ Protein Stability on the Formation of Transcription–Regulator Complexes” (Cells, 2019).

Target: T1, full-length Drosophila Hairless (Drosophila melanogaster, UniProt Q02308 1-1077)
T1 construct: Hairless (H), Drosophila melanogaster, full length (pEG-HFL); also called pEG-HFL; source: yeast two-hybrid fusion (EGY48 yeast, pEG202 vector)
T1 sequence (looked up): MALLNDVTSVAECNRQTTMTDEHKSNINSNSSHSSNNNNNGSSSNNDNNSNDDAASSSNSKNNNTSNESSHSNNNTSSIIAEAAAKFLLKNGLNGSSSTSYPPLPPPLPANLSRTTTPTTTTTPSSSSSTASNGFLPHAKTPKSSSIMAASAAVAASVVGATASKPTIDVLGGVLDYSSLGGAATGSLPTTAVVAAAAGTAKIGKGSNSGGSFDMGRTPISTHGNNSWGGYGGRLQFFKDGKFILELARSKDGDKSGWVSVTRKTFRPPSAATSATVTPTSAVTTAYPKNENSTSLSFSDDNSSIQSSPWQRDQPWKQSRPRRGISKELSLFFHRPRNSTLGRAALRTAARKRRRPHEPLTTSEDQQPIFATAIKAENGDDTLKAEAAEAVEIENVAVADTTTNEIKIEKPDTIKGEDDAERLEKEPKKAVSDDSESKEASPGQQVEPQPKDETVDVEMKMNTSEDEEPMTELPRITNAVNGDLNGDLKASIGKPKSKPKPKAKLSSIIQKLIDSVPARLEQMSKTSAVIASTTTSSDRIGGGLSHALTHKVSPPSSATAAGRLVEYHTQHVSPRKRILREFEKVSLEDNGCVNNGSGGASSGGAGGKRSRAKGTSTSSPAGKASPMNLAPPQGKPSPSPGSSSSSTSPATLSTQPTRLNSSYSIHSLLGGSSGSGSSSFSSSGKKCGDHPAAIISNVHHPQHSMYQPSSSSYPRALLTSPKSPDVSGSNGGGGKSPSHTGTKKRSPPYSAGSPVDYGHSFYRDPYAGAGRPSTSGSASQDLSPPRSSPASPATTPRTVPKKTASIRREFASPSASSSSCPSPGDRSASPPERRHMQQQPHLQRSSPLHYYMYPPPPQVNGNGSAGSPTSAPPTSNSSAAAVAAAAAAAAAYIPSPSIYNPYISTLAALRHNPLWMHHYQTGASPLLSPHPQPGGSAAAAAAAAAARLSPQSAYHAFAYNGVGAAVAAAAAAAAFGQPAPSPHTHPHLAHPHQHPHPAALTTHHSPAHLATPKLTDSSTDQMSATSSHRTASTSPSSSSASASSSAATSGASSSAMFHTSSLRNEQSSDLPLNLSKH
Assay: two-hybrid; Golemis-Brent system in EGY48 yeast; H fused to LexA DNA-binding domain in pEG202, CSL variants fused to B42-AD in pJG4-5; lacZ reporter pSH18-34; qualitative, and quantified in Miller Units (six clones from two experiments)
Details: partners not purified

B1: mouse RBPJ, wild type (natural protein)
chain: not shown
notes: RBPJ, Mus musculus, full-length protein in pJG vector; This is the yeast construct, not the Su(H) exon 1-RBPJ fusion of the flies; also called RBPJ^wt; murine RBPJ; source: yeast two-hybrid fusion (EGY48 yeast, pJG4-5 vector)
interaction strength relative to that between H and Su(H): ~40%
